B1: hLAL: human lysosomal acid lipase expressed from a doxycycline-controlled tissue-specific transgene in lal−/− mice; never administered as a protein (protein)
chain: GPKPVVFLQHGLLADSSNWVTNLANSSLGFILADAGFDVWMGNSRGNTWSRKHKTLSVSQDEFWAFSYDEMAKYDLPASINFILNKTGQEQVYYVGHSQGTTIGFIAFSQIPELAKRIKMFFALGPVASVAFCTSPMAKLGRLPDHLIKDLFGDKEFLPQSAFLKWLGTHVCTHVILKELCGNLCFLLCGFNERNLNMSRVDVYTTHSPAGTSVQNMLHWSQAVKFQKFQAFDWGSSAKNYFHYNQSYPPTYNVKDMLVPTAVWSGGHDWLADVYDVNILLTQITNLVFHESIPEWEHLDFIWGLDAPWRLYNKIINLMRKYQ
modifications: left off: small tags and cut ends
notes: human lysosomal acid lipase expressed from a doxycycline-controlled tissue-specific transgene in lal−/− mice; never administered as a protein

How the values were obtained:
Lin− cells = assay: Differentiation of bone marrow Lin− cells into Ly6G+CD11b+ cells; format: cell-based, mouse; conditions: lal−/− Lin− cells; 10 μmol/L, 5 days; vs ethanol
Method: Lineage-negative (Lin−) cells were isolated from the bone marrow by removing blood lineage marker-positive cells with an immunomagnetic microbead technique. Briefly, bone marrow cells were first incubated with a cocktail of biotin-conjugated antibodies against lineage specific antigens: CD11b, GR-1, B220, TER-119, and CD3ε (Mouse Lineage Panel Kit, BD Pharmingen, San Diego, Calif., USA) at 4° C. for 15 minutes. After washed with PBS, cells were then incubated with anti-biotin microbeads at 4° C. for another 15 minutes. Subsequently, cells were subjected to magnetic bead sorting according to the manufacturer's instructions (Miltenyi Biotec.). The resulting Lin− cells were cultured in RPMI1640 with 10% FBS. Five days later, Ly6G^+CD11b^+ cells derived from Lin− cells were analyzed by flow cytometry analysis.

Ly6G+CD11b+ cells = assay: Flow cytometry of Ly6G+CD11b+ cells in CCSP-Tg/KO mice; format: in vivo, mouse
Method: For immune cell profile analysis, single cells from the lung, bone marrow, spleen and blood of lal^+/+, lal^−/− and CCSP-Tg/KO triple mice were prepared. Cells were labeled with isotype control or surface-specific primary antibodies at 4° C. for 15 minutes, and then washed and ready for flow cytometry analysis. Anti-CD11b (M1/70) PE-Cyanine7 and anti-Ly6G (RB6-8c5) APC-eFluor® 780 were purchased from eBiosciences (San Diego, Calif., USA). For characterization of tissue-specific expression of the hLAL transgene, single cells from the lungs of lal^+/+, lal^−/− and CCSP-Tg/KO triple mice were prepared and stained. Surfactant protein C (SP-C, AT II epithelial cell marker) Ab and Flag Ab were purchased from Santa Cruz Biotechnology (Dallas, Tex., USA) and Sigma-Aldrich (St. Louis, Mo., USA), respectively. In gated SP-C^+ cells, the number of the Flag^+ cells were analyzed by flow cytometry and calculated based on M1, which is defined by isotype control. Whole spleen cells were used as a control, in which the number of the Flag^+ cells was analyzed. For flow cytometry analysis, ≥30,000 cells were acquired and scored using a LSRII machine (BD Biosciences, San Jose, Calif., USA). Data were processed using the CellQuest software program (BD Biosciences).

bone marrow cells = assay: Transwell assay of bone marrow cell transendothelial migration towards BALF; format: cell-based, mouse; conditions: BALF from doxycycline-treated CCSP-Tg/KO mice in lower chamber; 4 hours
Method: Transwell assay was used to determine cell transendothelial migration. ECs were added to the upper chamber of 24-well 8.0-μm-pore Transwell plates (Corning, Corning, N.Y., USA), and incubated at 37° C., 5% CO2 for 48 hours to form an EC monolayer. The supernatant was then removed, and CELLTRACKER™ Green 5-Chloromethylfluorescein Diacetate (CMFDA) (Invitrogen, Grand Island, N.Y., USA)-labeled bone marrow cells (1×10^4 cells in 200 μL media) were added to the upper well. After 4 hours, transendothelial migration of bone marrow cells was determined by counting their numbers in the lower chamber under 5 random microscopic fields.

[1] = system: LLC or B16 melanoma cells; assay: In vitro BALF treatment of tumor cells (proliferation, wound healing); format: cell-based, mouse
Method: BALF was harvested by 1 mL PBS, and cells were removed by centrifugation. To determine the effect of BALF on tumor cell proliferation, B16 melanoma or LLC cells (5×10^3) were seeded into a well of 96-well plates in 100 μL DMEM supplemented with 10% FBS, and then treated with 100 μL BALF harvested from lal^+/+, lal^−/− or CCSP-Tg/KO triple mice. Seventy-two hours later, the number of B16 melanoma or LLC cells was counted.
To analyze the effects of BALF on tumor cell or EC migration, in vitro wound healing assays were performed. Briefly, tumor cells or ECs were seeded at a density of 1.5×10^5 cells/well into a 24-well plate and incubated overnight to form a confluent monolayer. Scratch was created by scraping the cell monolayer in a straight line with a p200 pipet tip. After washing 3 times with PBS, the medium was changed with 250 μL DMEM containing 10% FBS and 5 μg/mL mitomycin C (Sigma-Aldrich). Then 250 μL BALF from lal^+/+, lal^−/− or CCSP-Tg/KO triple mice were added to the well. Cells were kept on culture at 37° C., 5% CO2. Images were taken at 0 and 15 hours after creating the scratch. Migration was estimated by measuring the distances from one side of the scratch to the other side using Image Pro-Plus software (Media Cybernetics, Rockville, Md., USA).

[2] = system: pulmonary endothelial cells (ECs); assay: In vitro BALF treatment of pulmonary endothelial cells (proliferation, wound healing); format: cell-based, mouse
Method: ECs were isolated from lal^+/+ lungs and cultured in vitro. Briefly, the mouse was anesthetized and 1 mL collagenase A (2 mg/mL, Roche, Indianapolis, Ind., USA) was infused into the lung through the trachea. The lung was removed and then incubated with 10 mL collagenase A at 37° C. for 30 minutes. After the incubation, the resulting cell suspension was filtered through a 40 μm strainer and centrifuged for 5 minutes at 1,500 rpm. After removal of the supernatant, the cell pellet was subjected to magnetic bead sorting using anti-CD31 microbeads (Miltenyi Biotec., Auburn, Calif., USA) according to the manufacturer's protocol. The resulting cells were plated onto gelatin-coated (Sigma-Aldrich) 6-well plates and maintained in DMEM supplemented with endothelial cell growth supplement, heparin, L-Glutamine (Sigma-Aldrich), FBS, and Antibiotic-Antimycotic (Gibco).
To examine the effect of BALF on EC proliferation, 5×10^4 ECs were seeded into a well of 24-well plates in 250 μL DMEM supplemented with 10% FBS, and then treated with 250 μL BALF harvested from lal^+/+, lal^−/− or CCSP-Tg/KO triple mice. Seventy-two hours later, the number of ECs was counted.
To analyze the effects of BALF on tumor cell or EC migration, in vitro wound healing assays were performed. […]

[3] = doxycycline-treated CCSP-Tg/KO mice

Molecule | Ly6G+CD11b+ cells derived from Lin− cells (Lin− cells) | percentage of Ly6G+CD11b+ cells in the lung (Ly6G+CD11b+ cells; doxycycline-treated (hLAL on) vs untreated CCSP-Tg/KO mice) | Ly6G+CD11b+ cell accumulation in the blood (Ly6G+CD11b+ cells; [3]) | Ly6G+CD11b+ cells in the spleen and bone marrow (Ly6G+CD11b+ cells; [3]) | bone marrow cell transendothelial migration (bone marrow cells) | tumor cell proliferation in vitro ([1]; LLC or B16 cells cultured 72 hours with BALF from doxycycline-treated CCSP-Tg/KO mice) | tumor cell migration in vitro ([1]; LLC or B16 cells, wound healing 15 hours, BALF from doxycycline-treated CCSP-Tg/KO mice, mitomycin C) | EC migration (wound healing) ([2]; BALF from doxycycline-treated CCSP-Tg/KO mice, 15 hours, mitomycin C) | EC proliferation ([2]; lal+/+ ECs with BALF from doxycycline-treated CCSP-Tg/KO mice, 72 hours)
9-hydroxyoctadecadienoic acid [9-HODE] | fewer Ly6G^+CD11b^+ cells | – | – | – | – | – | – | – | –
B1 | – | significantly decreased | reduced | no reversing effect | decreased bone marrow cell transendothelial migration | reduced | reduced | decreased EC migration | decreased EC proliferation

From patent US10857209B2, “Lysosomal acid lipase and PPAR gamma ligands as immune therapies for cancer treatment” (Indiana University Research and Technology Corporation, priority 2016, dated 2020)
